The values that follow come from article PMC8386734.

Assay [1] addresses DS-Cav1, prefusion-stabilized form of the RSV fusion (F) glycoprotein (human respiratory syncytial virus | not stated). In words: cryo-EM structure.
Assay [2] has the same target. Nature of the assay: crystal structure.

As usually defined, the stoichiometry N is a count of units in the complex or per binding partner.

For the substance “DS-Cav1, prefusion-stabilized form of the RSV fusion (F) glycoprotein (natural protein)”, the stoichiometry N in assay [1] and in assay [2] was 3 throughout.
